Entries after “also recorded” stand apart in the source; their conditions may differ.
Assays:
[1] = target: T1, NRP2:Fc-HRS(2-60) interaction (Homo sapiens, UniProt O60462); experiment: SPR competition of known NRP2 ligands with the NRP2:Fc-HRS(2-60) interaction; format: binding
T1 construct: Fc (C); purchased R&D Systems 2215-N2
Method: (§1) Protein-Protein Interaction studies. […] SPR experiments were conducted on a Bio-Rad ProteOn XPR36 Protein Interaction Array instrument. Proteins were immobilized on different channels of ProteOn GLC sensor chips through amine coupling. Analyte proteins were flowed over the immobilized proteins. The sensor chip surface was regenerated between each analyte run to remove interacting proteins. Data was double referenced against an interspot (untreated chip surface) and a blank surface (activated and deactivated for amine coupling).
(§2) Studies were performed to confirm the binding specificity of Neuropilin 2 (NRP2) to Fc-HRS(2-60) using orthologous methods to those used in the large scale Retrogenix screening (Example 1). In a series of experiments, Fc-HRS(2-60) and related proteins were immobilized on SPR chips, and NRP2 and related proteins were flowed as analytes. Upon confirmation of the NRP2:Fc-HRS(2-60) interaction, the dependence on divalent cations was tested as NRP2 is known to have Ca^2+ binding sites. The effects of previously characterized NRP2 ligands on the NRP2: Fc-HRS(2-60) interaction was also tested to determine if these known ligands have competitive effects on the Fc-HRS(2-60) interaction.
(§3) A subset of the known ligands of NRP2 appears to compete binding of Fc-HRS(2-60) to NRP2.

[2] = target: T2, NRP2 (Homo sapiens, UniProt O60462); experiment: SPR binding of known ligands to NRP2; settings: known NRP2 ligands
T2 construct: Fc (C); purchased R&D Systems 2215-N2
Method: as §1, §3

[3] = target: T2, NRP2; experiment: SPR protein-protein interaction, human NRP2 over immobilized protein; format: binding; settings: NRP2 flowed as analyte (50 nM or 20 nM); running buffer with 5 mM CaCl2
Method: as §1, §2

[4] = target: T3, mouse NRP2 (Mus musculus, UniProt O35375); experiment: SPR protein-protein interaction, mouse NRP2 over immobilized protein; format: binding; settings: 50 nM mouse NRP2 as analyte
T3 construct: Fc (C); purchased R&D Systems 7988-N2
Method: as §1, §2

[5] = target: T4, rat NRP2 (Rattus norvegicus, UniProt O35276); experiment: SPR protein-protein interaction, rat NRP2 over immobilized protein; format: binding; settings: 50 nM rat NRP2 as analyte
T4 construct: Fc (C); His (C); purchased R&D Systems 567-N2
T4 sequence (O35276 23-925): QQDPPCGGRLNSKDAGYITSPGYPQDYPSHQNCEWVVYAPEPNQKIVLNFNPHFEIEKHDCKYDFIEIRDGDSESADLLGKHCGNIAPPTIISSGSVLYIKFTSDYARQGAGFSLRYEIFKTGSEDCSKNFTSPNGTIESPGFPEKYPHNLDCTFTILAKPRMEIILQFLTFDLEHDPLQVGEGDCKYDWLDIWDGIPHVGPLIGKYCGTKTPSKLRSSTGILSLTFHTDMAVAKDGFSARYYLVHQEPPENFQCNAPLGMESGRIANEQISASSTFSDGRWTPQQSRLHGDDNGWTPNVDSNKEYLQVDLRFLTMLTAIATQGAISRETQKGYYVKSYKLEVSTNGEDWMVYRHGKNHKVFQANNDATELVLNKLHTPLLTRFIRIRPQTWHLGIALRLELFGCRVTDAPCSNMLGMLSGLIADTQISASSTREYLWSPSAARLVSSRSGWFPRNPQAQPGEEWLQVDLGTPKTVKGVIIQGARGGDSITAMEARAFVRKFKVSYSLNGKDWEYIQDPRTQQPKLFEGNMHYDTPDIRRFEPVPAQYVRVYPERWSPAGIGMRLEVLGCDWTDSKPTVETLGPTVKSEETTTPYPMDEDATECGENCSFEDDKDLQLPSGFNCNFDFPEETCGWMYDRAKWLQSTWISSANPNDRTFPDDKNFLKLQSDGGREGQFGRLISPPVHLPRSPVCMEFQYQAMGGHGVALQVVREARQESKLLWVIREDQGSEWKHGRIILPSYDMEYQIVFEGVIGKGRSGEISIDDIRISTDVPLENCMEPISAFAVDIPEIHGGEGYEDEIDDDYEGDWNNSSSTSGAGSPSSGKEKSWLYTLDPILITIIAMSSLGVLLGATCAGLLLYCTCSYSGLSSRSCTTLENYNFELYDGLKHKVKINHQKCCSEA
Method: as §1, §2

[6] = target: T5, cell-expressed NRP2 (NRP2a-GFP fusion protein on HEK293T cells) (Homo sapiens, UniProt O60462); experiment: Immunofluorescence binding of Fc-HRS (2-60) to HEK293T cells overexpressing NRP2v2-GFP; settings: HEK293T cells overexpressing NRP2v2-GFP, GFP Bright cells
T5 construct: host or cells: HEK293T
Method: Reagents: • PE anti-human IgG Fc Antibody, clone HP6017, Biolegend cat 409304 • Mouse Anti-HRS monoclonal antibody (1-96) Clone 1C8, Abnova cat H00003035-M01 • Mouse IgG2a, Isotype control antibody (MOPC-173), Biolegend cat 400223 • Recombinant Human VEGF-C Protein, R&D Systems, cat 2179-VC-025/CF • Formaldehyde, 16%, methanol free, Ultra Pure, Polysciences, cat 18814-10 • Hoechst 33342, Trihydrochloride, Trihydrate, ThermoFisher Scientific, cat H1399 • Fc-HRS (2-60) was prepared as described in PCT application PCT/US2014/029699 • Gibco DMEM, High Glucose, ThermoFisher Scientific, cat 11965092 • PolyJet™ In Vitro DNA Transfection Reagent, SignaGen, cat SL100688 • Neuropilin 2 (NRP2) (NM_003872) Human ORF Clone, Origene, cat RG220706 • Collagen Coating Solution, Cell Applications Cat 125-100 • 1×PBS containing 1% BSA, 0.9 mM CaCl2 and 20 mM glucose • Binding buffer containing 1% normal mouse IgG (sigma cat 18765) and 2.5% (Human Fc Receptor Binding Inhibitor, ebioscience 14-9161-73).
Cell culture and transfection. […]
Immunofluorescence assays on cultured cells. Binding and quantitation of Fc-HRS (2-60) to cell-expressed NRP2 was achieved using immunofluorescence microscopy. […] The Hoechst stain was replaced with 1×PBS and subsequently read on an IN Cell Analyzer 2200. 20× images were acquired and analyzed using In Cell Analyzer 1000 Workstation software. […]

T3 sequence (O35375 21-931): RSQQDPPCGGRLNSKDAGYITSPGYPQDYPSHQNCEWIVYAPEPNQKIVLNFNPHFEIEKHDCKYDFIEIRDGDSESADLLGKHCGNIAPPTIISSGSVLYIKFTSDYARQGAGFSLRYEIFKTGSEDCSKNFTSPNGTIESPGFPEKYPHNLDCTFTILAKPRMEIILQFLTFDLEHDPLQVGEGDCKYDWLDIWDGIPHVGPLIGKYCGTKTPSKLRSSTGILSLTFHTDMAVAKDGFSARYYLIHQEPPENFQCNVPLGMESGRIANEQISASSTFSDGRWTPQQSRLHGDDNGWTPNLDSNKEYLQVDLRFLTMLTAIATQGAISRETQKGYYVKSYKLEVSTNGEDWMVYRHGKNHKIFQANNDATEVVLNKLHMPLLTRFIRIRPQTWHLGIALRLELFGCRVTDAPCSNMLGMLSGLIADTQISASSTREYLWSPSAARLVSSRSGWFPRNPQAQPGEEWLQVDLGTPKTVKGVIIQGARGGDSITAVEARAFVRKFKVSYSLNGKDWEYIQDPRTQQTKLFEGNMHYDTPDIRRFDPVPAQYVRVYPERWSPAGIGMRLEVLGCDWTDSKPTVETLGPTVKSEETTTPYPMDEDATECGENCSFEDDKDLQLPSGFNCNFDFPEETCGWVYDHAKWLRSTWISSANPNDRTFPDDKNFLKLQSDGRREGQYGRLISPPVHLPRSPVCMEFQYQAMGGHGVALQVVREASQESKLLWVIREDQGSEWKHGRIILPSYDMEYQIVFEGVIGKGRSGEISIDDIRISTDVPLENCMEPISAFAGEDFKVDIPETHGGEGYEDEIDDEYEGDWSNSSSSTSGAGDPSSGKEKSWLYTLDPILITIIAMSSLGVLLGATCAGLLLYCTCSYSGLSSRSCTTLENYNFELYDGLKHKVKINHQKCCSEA

effect of ligand on binding of NRP2 to Fc-HRS(2-60) (SPR) ([1]; NRP2 in the presence of the ligand over immobilized Fc-HRS(2-60)) | Competes with Fc-HRS(2-60) for NRP2 binding ([1]; SPR, NRP2 binding to immobilized Fc-HRS(2-60) in presence of ligand) | Binding to NRP2 observed by SPR [2] | binding to cell-expressed NRP2a (staining intensity of anti-Fc-PE complex) [6] | Substance | binding of human NRP2 to immobilized protein (SPR) [3] | binding of mouse NRP2 to immobilized protein (SPR) [4] | binding of rat NRP2 to immobilized protein (SPR) [5]
reduced or ablated | Yes | Yes |  | VEGF-A165: commercial protein (Peprotech #100-20) [reference compound] |  |  | 
 |  |  | negligible specific binding | Fc-HRS(2-11): truncated form of Fc-HRS(2-60) with a 49 amino acid deletion at the C-terminus, deleting the majority of the WHEP domain | not a truncated form of Fc-HRS(2-11); also recorded: none of these NRP2 forms bind | not a truncated form of Fc-HRS(2-11); also recorded: none of these NRP2 forms bind | not a truncated form of Fc-HRS(2-11); also recorded: none of these NRP2 forms bind

From US20230039401A1, “COMPOSITIONS AND METHODS FOR TREATING NRP2-ASSOCIATED DISEASES” (aTyr Pharma, Inc., priority 2018, published 2023)
